Experimental data: paper doi:10.1101/467431

Biological target: Sca2 full-length passenger domain, construct Sca_(34-1515) (Rickettsia conorii) (UniProt Q92JF7)
Experiment: ITC

What does the source list for “monomeric actin (LatB-actin) (from UniProt P68135 1-377) (natural protein)”?
KD1 (two-site binding model): 0.19 µM; KD2 (two-site binding model): 0.02 µM; N of the single site model (called unrealistic): 0.6; stoichiometry N (actin subunits per Sca (34-1515)): 2
